Literature values, collected in article PMC4737190.
Several values for one entry are separate records, joined by “and”; a condition that tells them apart may be missing. Identical values can stand only once.

Target: linear (Met1-linked) di-ubiquitin (Homo sapiens) (UniProt P0CG47)

Chain of NEMO UBAN (Q9Y6K9 242-350): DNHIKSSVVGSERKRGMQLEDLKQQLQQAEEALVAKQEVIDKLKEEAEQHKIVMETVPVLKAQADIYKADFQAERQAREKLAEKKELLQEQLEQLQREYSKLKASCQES

Kd: 1.6 µM and 3.7 µM
Substance: NEMO UBAN (from UniProt Q9Y6K9)
